For orientation: stoichiometry N means the number of molecules, sites or subunits per partner or assembly.

“And” between values parts separate entries of the source, which are not always exact repeats. Equal entries are not always repeated.

For series [1], the target named is SoxR Cys50Ser, Strep-tagged (Hyphomicrobium denitrificans). Nature of the series: SEC; Superdex 75 Increase 10/300 GL, calibrated with mass standards; 50 mM Tris-HCl, pH 8.0, 150 mM NaCl; 0.8 mL/min; self-association of SoxR. A general note: In gel filtration, larger molecules generally elute earlier.
Series [2] concerns the target SoxR Cys116Ser, Strep-tagged (Hyphomicrobium denitrificans). The series is described as above.
Series [3] addresses T1, SoxR (Hyphomicrobium denitrificans) (UniProt D8JT35).
T1 sequence: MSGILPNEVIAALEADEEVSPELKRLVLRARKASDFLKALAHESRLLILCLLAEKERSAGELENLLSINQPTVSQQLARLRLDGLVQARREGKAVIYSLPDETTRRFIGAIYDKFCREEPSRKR
Nature of the series: EMSA. Particulars: EMSA: 10 mM Tris-HCl pH 8.0, 50 mM KCl, 1 mM DTT, about 7% glycerol, 17 nM DNA, 15 ul; 20 min at room temperature, then 30 min at 30 C with DNA; 6% native gel …. For orientation: Mobility shift assays separate free from complexed probe on a gel.

Series [4] has as its target SoxR Cys50Ser Cys116Ser, Strep-tagged (Hyphomicrobium denitrificans). Nature of the series: SEC; Superdex 75 Increase 10/300 GL, calibrated with mass standards; 50 mM Tris-HCl, pH 8.0, 150 mM NaCl; 0.8 mL/min; self-association of SoxR.
Series [5] addresses Hyphomicrobium denitrificans SoxR, Strep-tagged wild type (Hyphomicrobium denitrificans). Described as above.

As to “SoxR Cys50Ser, Strep-tagged (natural protein)”, the stoichiometry N in series [1] is 2 and 4.

Turning to “SoxR Cys116Ser, Strep-tagged (natural protein)”, in series [2], the stoichiometry N was 2 and 4.

As for “GGGTCACCAAATTCTGCAGGTCTCAATGCGAATGCGAGGCTGCTCCAGCTAGACGAAAAACAAGGAACGTTGCAATAGATAATTCACATATGATAATTTTCATATGTGTTATAGGATGAACGTTATCGCAGCTTCCGGGAGAGATGGCGTGAT (double strand) [soxA-soxY intergenic fragment, 151 bp]”, the binding result in series [3] is recorded as “binds”.

For “SoxR Cys50Ser Cys116Ser, Strep-tagged (natural protein)”, the stoichiometry N in series [4] was 2 and 4.

Consider “Hyphomicrobium denitrificans SoxR, Strep-tagged wild type (natural protein)”, for which the stoichiometry N in series [5] is 2 and 4.

(Values after publication PMC10451225.)
